Where “and” joins values, the source holds several entries; their conditions need not be identical. Equal entries are not always repeated. Marks after values point to notes of the source that are not given here. Peptide text beside a SMILES is read from it.
Key:
H750A monomers = H750A monomers (Homo sapiens, UniProt P27487, H750A); test: AUC of H750A in the presence of inhibitor or dipeptide product; settings: PBS buffer, FIG. 14
Method: AUC was performed for H750A in the presence of the proline-mimetic inhibitor and Gly-Pro dipeptide product, since the substrate Gly-Pro-pNA is cleaved by the enzyme.

DPP-IV [1] = test: Kinetic constant measurements with chromogenic substrate H-Gly-Pro-pNA; assay type: biochemical, human; settings: for Km / kcat: substrate H-Gly-Pro-pNA
Method: To measure the kinetic parameters, the chromogenic substrate H-Gly-Pro-pNA was utilized to initiate the reaction, which was monitored at OD 405 nm as a function of time (21). […] The initial rate was measured with less than 10% substrate depletion for the first 10 to 300 seconds. The steady-state parameters, kcat and Km, were determined from initial velocity measurements at 0.5 to 5 Km of the substrate concentrations. Lineweaver-Burk plots were analyzed using non-linear regression of the Michaelis-Menten equation. Correlation coefficients better than 0.99 were obtained throughout.

[2] = Size exclusion chromatography (gel filtration, Superdex 200); assay type: physicochemical; settings: gel filtration experiments; PBS buffer
Method: Chemical crosslinking in intact cells was conducted as described (24). Size exclusion chromatography was conducted at 4° C. Purified proteins (0.5 ml at a concentration of 5 uM) were applied to a Superdex 200 10/30 column (10×300-310 mm) pre-equilibrated with PBS. The sample was eluted with the same buffer at 0.3 ml/min and 0.25 ml fractions were collected. The Superdex 200 10/30 column was calibrated with the Stokes Radii of ferritin (6.1 nm), catalase (5.22 nm), aldolase (4.81 nm), albumin (3.55 nm), ovalbumin (3.05 nm) and chymotrypsinogen A (2.09 nm) from Amersham-Pharmacia.

[3] = Analytical ultracentrifugation (AUC): sedimentation velocity and equilibrium; assay type: physicochemical; settings: for quaternary structure (monomer/dimer) by AUC: PBS buffer where stated; for Stokes' radius (Rs): sedimentation velocity experiments
Method: Buffer was changed using an Amicon device and DPP-IV proteins were allowed to equilibrate for at least four hours or longer as indicated in the text at 25° C. after buffer changes. The sedimentation coefficients (S) of the enzyme were estimated by a Beckman-Coulter XL-A analytical ultracentrifuge with an An60Ti rotor as described (25). Sedimentation velocity analysis was performed at 40,000 rpm at 25° C. with standard double sector aluminum centerpieces. The UV absorption of the cells was scanned every 5 min for 4 hours. Sedimentation equilibrium was performed at 20° C. with six-channel open centerpieces and then centrifuged at 12,000 rpm for 12 hours. The data from both sedimentation velocity and sedimentation experiments were analyzed with the SedFit version 8.7 program to obtain molecular weights and sedimentation coefficients (25). Sednterp version 1.07 program is used to obtain solvent density, viscosity, Stokes' radius (Rs) and anhydrous frictional ratio (f/fo).

DPP-IV [4] = test: Dilution experiment (specific activity after two-fold dilutions); assay type: biochemical, human; settings: 200 nM to 1.6 nM enzyme, 16 hours at 25° C., 10 uM H-Gly-Pro-pNA
Method: Enzyme concentrations ranging from 200 nM to 1.6 nM were used in the dilution experiments. The experiments were carried out with consecutive two-fold dilutions in PBS containing 0.1% BSA and 1 mM DTT (dithiothreitol). The solution after dilution was incubated at 25° C. for 16 hours to ensure attainment of dimer-monomer equilibrium. The reaction was initiated by adding the substrate H-Gly-Pro-pNA at a final concentration of 10 uM for both wild type DPP-IV and H750A proteins. The initial rate of the reaction was recorded and converted to specific activity.

Chain of H750A monomers (P27487 39-766 H750A): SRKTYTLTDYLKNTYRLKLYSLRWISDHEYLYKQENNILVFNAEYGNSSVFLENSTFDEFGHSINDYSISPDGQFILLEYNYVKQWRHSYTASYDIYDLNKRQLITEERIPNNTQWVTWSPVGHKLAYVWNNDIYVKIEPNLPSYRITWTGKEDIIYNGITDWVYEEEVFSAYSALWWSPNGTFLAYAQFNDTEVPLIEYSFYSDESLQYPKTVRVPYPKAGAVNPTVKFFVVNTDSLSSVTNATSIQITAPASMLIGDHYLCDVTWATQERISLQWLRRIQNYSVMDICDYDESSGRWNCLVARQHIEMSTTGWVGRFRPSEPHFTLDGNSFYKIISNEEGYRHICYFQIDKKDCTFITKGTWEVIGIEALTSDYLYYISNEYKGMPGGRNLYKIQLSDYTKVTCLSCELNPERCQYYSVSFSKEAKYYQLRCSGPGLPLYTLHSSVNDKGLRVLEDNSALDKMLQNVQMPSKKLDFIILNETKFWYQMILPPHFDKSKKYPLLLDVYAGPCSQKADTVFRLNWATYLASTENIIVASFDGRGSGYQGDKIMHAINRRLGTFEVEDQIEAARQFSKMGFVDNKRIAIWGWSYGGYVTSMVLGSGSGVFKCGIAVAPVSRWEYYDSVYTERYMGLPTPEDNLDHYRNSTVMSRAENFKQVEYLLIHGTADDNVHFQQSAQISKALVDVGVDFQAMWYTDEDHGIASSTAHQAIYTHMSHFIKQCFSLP

Molecule | dimer formation of H750A monomers in the presence of the substance (H750A monomers) | Km (DPP-IV [1]; High salt buffer) [µM] | kcat (DPP-IV [1]; High salt buffer) [s⁻¹] | Km (DPP-IV [1]; PBS buffer) [µM] | kcat (DPP-IV [1]; PBS buffer) [s⁻¹] | AUC analysis or catalytic activities in low salt buffer (DPP-IV [1]; low salt buffer compared to PBS buffer (data not shown)) | Stokes' radius (Rs) [2] | Sedimentation coefficient (s20, w) ([3]; High salt buffer) | quaternary structure (subunit composition) by sedimentation velocity ([3]; High salt buffer (0.5 M sodium sulfate)) | Anhydrous frictional ratio (f/fo) ([3]; PBS buffer) | Sedimentation coefficient (s20, w) ([3]; PBS buffer) [S] | quaternary structure (monomer/dimer) by AUC [3] | Stokes' radius (Rs) ([3]; High salt buffer) | Stokes' radius (Rs) ([3]; PBS buffer) | specific activity on dilution (DPP-IV [4])
NCC(=O)N1CCC[C@H]1C(=O)O [G-P-OH, Gly-Pro] (H-Gly-Pro-OH) | did not associate to form dimers | – | – | – | – | – | – | – | – | – | – | – | – | – | –
rDPP-IV: recombinant wild-type human DPP-IV (aa 39 to 766) from baculoviral infected insect cells | – | 181 | 57 | 90 | 87 | no differences | 5.6 nm and 5.6^a nm | 5.0 S and 4.9 S | dimer | 1.4 | 8.4 | non-spherical dimer | 4.9^b nm | 5.0^b nm | no decrease in specific activity
sDPP-IV: endogenous DPP-IV purified from human semen | – | – | – | 96 | 73 | – | 5.9 nm and 5.9^a nm | – | – | 1.4 | 9.1 | homodimeric | – | 5.8^b nm | no decrease in specific activity
